Molecular target: T1, endogenous FLT3 on the plasma membranes of THP-1 or NOMO-1 cells (UniProt P36888 27-993, limits assumed)
T1 construct: whole, on cells
T1 sequence (looked up): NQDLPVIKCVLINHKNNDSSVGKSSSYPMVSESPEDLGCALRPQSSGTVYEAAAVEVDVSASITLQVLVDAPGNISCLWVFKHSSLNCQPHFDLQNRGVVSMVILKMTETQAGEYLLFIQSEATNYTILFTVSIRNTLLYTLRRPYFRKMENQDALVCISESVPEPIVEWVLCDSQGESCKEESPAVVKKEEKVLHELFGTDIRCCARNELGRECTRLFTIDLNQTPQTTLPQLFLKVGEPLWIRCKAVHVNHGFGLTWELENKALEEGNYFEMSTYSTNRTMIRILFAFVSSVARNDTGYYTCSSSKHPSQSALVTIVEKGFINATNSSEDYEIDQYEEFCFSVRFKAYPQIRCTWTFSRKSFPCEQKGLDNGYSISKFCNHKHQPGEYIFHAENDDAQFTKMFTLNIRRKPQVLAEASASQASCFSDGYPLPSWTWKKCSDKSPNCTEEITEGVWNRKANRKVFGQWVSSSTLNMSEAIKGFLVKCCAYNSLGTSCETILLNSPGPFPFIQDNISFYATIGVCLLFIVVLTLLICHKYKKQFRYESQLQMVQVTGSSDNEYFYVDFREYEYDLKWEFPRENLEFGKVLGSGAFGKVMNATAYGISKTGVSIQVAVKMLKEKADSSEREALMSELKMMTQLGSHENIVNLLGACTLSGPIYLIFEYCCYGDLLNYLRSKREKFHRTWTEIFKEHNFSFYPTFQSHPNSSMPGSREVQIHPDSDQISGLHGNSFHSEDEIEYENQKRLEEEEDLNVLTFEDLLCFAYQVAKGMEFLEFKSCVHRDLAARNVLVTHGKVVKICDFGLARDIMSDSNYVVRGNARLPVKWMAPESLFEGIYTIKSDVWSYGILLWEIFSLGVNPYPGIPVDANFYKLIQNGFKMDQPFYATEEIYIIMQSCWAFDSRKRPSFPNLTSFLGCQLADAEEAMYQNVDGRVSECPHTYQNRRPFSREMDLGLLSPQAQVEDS
Test: interaction and colocalization in THP-1 or NOMO-1 cells (method not detailed)

binding result: binds
B1: SCUBE1 on the cell surface of leukemia cells (THP-1, NOMO-1 and other lines) (other, human, UniProt Q8IWY4 24-988, looked up)
chain: GGSGLPGSVDVDECSEGTDDCHIDAICQNTPKSYKCLCKPGYKGEGKQCEDIDECENDYYNGGCVHECINIPGNYRCTCFDGFMLAHDGHNCLDVDECQDNNGGCQQICVNAMGSYECQCHSGFFLSDNQHTCIHRSNEGMNCMNKDHGCAHICRETPKGGVACDCRPGFDLAQNQKDCTLTCNYGNGGCQHSCEDTDTGPTCGCHQKYALHSDGRTCIETCAVNNGGCDRTCKDTATGVRCSCPVGFTLQPDGKTCKDINECLVNNGGCDHFCRNTVGSFECGCRKGYKLLTDERTCQDIDECSFERTCDHICINSPGSFQCLCHRGYILYGTTHCGDVDECSMSNGSCDQGCVNTKGSYECVCPPGRRLHWNGKDCVETGKCLSRAKTSPRAQLSCSKAGGVESCFLSCPAHTLFVPDSENSYVLSCGVPGPQGKALQKRNGTSSGLGPSCSDAPTTPIKQKARFKIRDAKCHLRPHSQARAKETARQPLLDHCHVTFVTLKCDSSKKRRRGRKSPSKEVSHITAEFEIETKMEEASDTCEADCLRKRAEQSLQAAIKTLRKSIGRQQFYVQVSGTEYEVAQRPAKALEGQGACGAGQVLQDSKCVACGPGTHFGGELGQCVSCMPGTYQDMEGQLSCTPCPSSDGLGLPGARNVSECGGQCSPGFFSADGFKPCQACPVGTYQPEPGRTGCFPCGGGLLTKHEGTTSFQDCEAKVHCSPGHHYNTTTHRCIRCPVGTYQPEFGQNHCITCPGNTSTDFDGSTNVTHCKNQHCGGELGDYTGYIESPNYPGDYPANAECVWHIAPPPKRRILIVVPEIFLPIEDECGDVLVMRKSASPTSITTYETCQTYERPIAFTSRSRKLWIQFKSNEGNSGKGFQVPYVTYDEDYQQLIEDIVRDGRLYASENHQEILKDKKLIKALFDVLAHPQNYFKYTAQESKEMFPRSFIKLLRSKVSRFLRPYK
notes: whole, on cells; Endogenous protein; in western blots it was in cell lysate; also called surface SCUBE1; membrane SCUBE1

Reference: patent US20260007767A1 (ACADEMIA SINICA, published 2026)
